Experiments:
AfERG10A = target: T1, AfERG10A (Aspergillus fumigatus, UniProt B0XMC1); assay: X-ray crystal structure of the complex, […] Å; details: crystals from 0.1 M HEPES pH 7.0, 2 M ammonium sulfate with CoA; CoA binding site
T1 construct: gene erg10A; pGEX-6P1 GST tag cleaved by PreScission; E. coli BL21(DE3)/pLysS; homotetramer
T1 sequence (B0XMC1 36-433): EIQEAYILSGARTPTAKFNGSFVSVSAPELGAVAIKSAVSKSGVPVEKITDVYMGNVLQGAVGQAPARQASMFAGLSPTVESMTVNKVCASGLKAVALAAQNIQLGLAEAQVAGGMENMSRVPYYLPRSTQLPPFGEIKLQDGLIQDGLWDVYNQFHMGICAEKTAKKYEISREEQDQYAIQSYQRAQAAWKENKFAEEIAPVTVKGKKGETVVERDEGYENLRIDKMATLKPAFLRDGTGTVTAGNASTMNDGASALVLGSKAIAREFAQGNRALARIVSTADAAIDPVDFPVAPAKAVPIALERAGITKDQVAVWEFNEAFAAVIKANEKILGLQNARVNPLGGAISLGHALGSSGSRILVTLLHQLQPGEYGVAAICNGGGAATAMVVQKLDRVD

purified protein = substrate: CC(=O)SCCNC(=O)CCNC(=O)[C@H](O)C(C)(C)COP(=O)(O)OP(=O)(O)OC[C@H]1O[C@@H](n2cnc3c(N)ncnc32)[C@H](O)[C@@H]1OP(=O)(O)O; assay: purified protein; format: biochemical, Aspergillus fumigatus; details: 50 mM Tris-HCl pH 7.4, 0.2 mM NADH, 0.5 mM DTT, 30°C
[1] = target: the molecule itself; assay: crystal structure; apo and CoA-complexed AfERG10A; sitting drop at room temperature, 0.1 M HEPES (pH 7.0), 2 M ammonium sulfate, in the absence or presence of CoA; refined to 2.4 Å; four molecules in one asymmetric unit
[2] = substrate: CC(C)(COP(=O)(O)OP(=O)(O)OC[C@H]1O[C@@H](n2cnc3c(N)ncnc32)[C@H](O)[C@@H]1OP(=O)(O)O)[C@@H](O)C(=O)NCCC(=O)NCCS; assay: Mg2+ method, degradative (thiolysis) reaction, steady-state kinetics; format: biochemical, Aspergillus fumigatus; details: acetoacetyl-CoA co-substrate (10 μM in the mixture as printed), 50 mM Tris-HCl pH 8.1, 20 mM MgCl2, 40 mM KCl, 30°C
Description: (§1) Mg2+ method, degradative (thiolysis) reaction, steady-state kinetics on AfERG10A

[3] = substrate: CC(=O)CC(=O)SCCNC(=O)CCNC(=O)[C@H](O)C(C)(C)COP(=O)(O)OP(=O)(O)OC[C@H]1O[C@@H](n2cnc3c(N)ncnc32)[C@H](O)[C@@H]1OP(=O)(O)O; assay: as above; format: biochemical, Aspergillus fumigatus; details: CoA co-substrate (60 μM in the mixture as printed), 50 mM Tris-HCl pH 8.1, 20 mM MgCl2, 40 mM KCl, 30°C
Description: as §1

**Q.** How did the “X-ray crystal structure of the complex, 2.4 Å” value (AfERG10A) turn out when CC(C)(COP(=O)(O)OP(=O)(O)OC[C@H]1O[C@@H](n2cnc3c(N)ncnc32)[C@H](O)[C@@H]1OP(=O)(O)O)[C@@H](O)C(=O)NCCC(=O)NCCS [CoA] was run?
**A.** structures of apo- and CoA-complexed AfERG10A were determined

B1: Aspergillus fumigatus acetyl-CoA acetyltransferase AfERG10A (residues 36 to 433) (enzyme, UniProt B0XMC1 36-433, looked up)
chain: T1 sequence (B0XMC1 36-433)
notes: AfERG10A (AFUB_000550), mitochondrial acetyl-CoA acetyltransferase of Aspergillus fumigatus, whole protein 433 amino acids; Cloned from cDNA into pGEX-6P1 with primers P13/P14; After PreScission cleavage a few vector residues probably remain at the N-terminus; Primer P13 carries a Lys codon (AAA) before GAG (Glu), so the construct may begin one residue earlier or have an added Lys; also called …
**Q.** Which Km (purified protein) does the source give for B1 here?
**A.** 232 ± 49 µM

**Q.** What about the kcat (purified protein) of the same molecule?
**A.** 7 ± 0.4 s⁻¹

**Q.** What about the “stoichiometry N” value [1] of the same molecule?
**A.** 4

**Q.** What about the Km [2] of the same molecule?
**A.** 26 ± 5 µM

**Q.** And the kcat [2]?
**A.** 5 ± 0.2 s⁻¹

**Q.** What about the Km [3] of the same molecule?
**A.** 43 ± 9 µM

**Q.** What about the kcat [3] of the same molecule?
**A.** 3 ± 0.2 s⁻¹

Source: article PMC7082573, “Aspergillus fumigatus Mitochondrial Acetyl Coenzyme A Acetyltransferase as an Antifungal Target” (Applied and Environmental Microbiology, 2020)
